Consider three molecules from patent US20220194996A1.

First the molecules themselves.
B1: Pro(CsLNK)-6C fusion protein, produced in L. lactis (protein)
chain: EYVDEKERQGEIYPFGDEEEKDEGGESFTYEKSEVDKTDLFKFIEGGEGDDVYKVDGSKVLLDDDTISRVSKKHTARDGEYGEYGEAVEDGENVIKIIRSVLQSGALPSVGVDELDKIDLSYETTESGDTAVSEDSYDKYASNNTNKENMPNDPNRNVDENANANSAVKNNNNEEEKKVIHGCNFSSNVSSKHTFTDSLDISLVDDSAHISCNVHLSEPKYNHLVGLNCPGDIIPDCFFQVYQPESEELEPSNIVYLDSQINIGDIEYYEDAEGDDKIKLFGIVGSIPKTTSFTCICKKDKKSAYMTVTIDSA
B2: Pro(Flex2)-6C fusion protein, produced in L. lactis (protein)
chain: EYVDEKERQGEIYPFGDEEEKDEGGESFTYEKSEVDKTDLFKFIEGGEGDDVYKVDGSKVLLDDDTISRVSKKHTARDGEYGEYGEAVEDGENVIKIIRSVLQSGALPSVGVDELDKIDLSYETTESGDTAVSEDSYDKYASNNTNKEGGGGSGGGGSGGGGSEKKVIHGCNFSSNVSSKHTFTDSLDISLVDDSAHISCNVHLSEPKYNHLVGLNCPGDIIPDCFFQVYQPESEELEPSNIVYLDSQINIGDIEYYEDAEGDDKIKLFGIVGSIPKTTSFTCICKKDKKSAYMTVTIDSA
B3: Pro(Sol)-6C fusion protein, produced in L. lactis (protein)
chain: EYVDEKERQGEIYPFGDEEEKDEGGESFTYEKSEVDKTDLFKFIEGGEGDDVYKVDGSKVLLDDDTISRVSKKHTARDGEYGEYGEAVEDGENVIKIIRSVLQSGALPSVGVDELDKIDLSYETTESGDTAVSEDSYDKYASNNTNKEKESGSVSSEQLAQFRSLDEKKVIHGCNFSSNVSSKHTFTDSLDISLVDDSAHISCNVHLSEPKYNHLVGLNCPGDIIPDCFFQVYQPESEELEPSNIVYLDSQINIGDIEYYEDAEGDDKIKLFGIVGSIPKTTSFTCICKKDKKSAYMTVTIDSA

The test addresses rat mAb 45.1 (against Pfs48/45 conformational epitope I).
On to B1, for which the % of folding is 75%. With B2 the figure was 100%; with B3, 90%.
